The Immune Epitope Database (IEDB)

Columns and labels:
HLA-B*35:01 = test: IEDB peptide-MHC binding, purified MHC/competitive/fluorescence; filed as Kd, often an IC50 or EC50 that approximates it; ≥ and ≤ were set here for values at or beyond the usual limits of such assays
HLA-B*15:01 [1] = test: as above
HLA-B*51:01 = test: as above
HLA-B*08:01 [2] = test: IEDB peptide-MHC binding, purified MHC/competitive/fluorescence; ≥ and ≤ were set here for values at or beyond the usual limits of such assays; details: source organism: Zaire ebolavirus
HLA-A*11:01 [3] = test: as above; details: source organism: Zaire ebolavirus
HLA-A*02:01 [4] = test: as above; details: source organism: Zaire ebolavirus
HLA-B*15:01 [5] = test: as above; details: source organism: Zaire ebolavirus
HLA-B*07:02 [6] = test: as above; details: source organism: Zaire ebolavirus
HLA-A*03:01 [7] = test: as above; details: source organism: Zaire ebolavirus
HLA-B*58:01 = test: IEDB peptide-MHC binding, purified MHC/direct/fluorescence; filed as Kd, often an IC50 or EC50 that approximates it; ≥ and ≤ were set here for values at or beyond the usual limits of such assays
HLA-B*27:05 = test: as above
HLA-B*08:01 [8] = test: as above
HLA-B*44:02 = test: as above
HLA-A*11:01 [9] = test: as above
HLA-A*26:01 = test: as above; details: source organism: Influenza A virus(A/swine/Shandong/fNY/2003(H9N2))
HLA-A*24:03 = test: as above; details: source organism: Influenza A virus (A/goose/Guangxi/1097/2004(H5N1))
HLA-A*02:01 [10] = test: as above
HLA-B*40:01 = test: as above
HLA-B*15:01 [11] = test: as above
HLA-A*69:01 = test: as above
HLA-B*07:02 [12] = test: as above
HLA-A*01:01 = test: as above
HLA-A*24:02 = test: as above
HLA-B*08:02 = test: as above; details: source organism: Influenza A virus(A/swine/Shandong/fNY/2003(H9N2))
HLA-B*46:01 = test: as above
HLA-A*03:01 [13] = test: as above
HLA-B*18:01 = test: as above; details: source organism: Influenza A virus (A/goose/Guangxi/1097/2004(H5N1))
HLA-A*31:01 [14] = test: IEDB peptide-MHC binding, purified MHC/competitive/fluorescence; filed as Kd, often an IC50 or EC50 that approximates it; ≥ and ≤ were set here for values at or beyond the usual limits of such assays; details: source organism: Influenza A virus H3N2
HLA-A*31:01 [15] = test: IEDB peptide-MHC binding, purified MHC/direct/fluorescence; filed as Kd, often an IC50 or EC50 that approximates it; ≥ and ≤ were set here for values at or beyond the usual limits of such assays
HLA-B*48:01 = test: as above; details: source organism: Mammarenavirus lassaense
HLA-B*57:01 = test: as above; details: source organism: Mammarenavirus lassaense
HLA-B*53:01 = test: IEDB peptide-MHC binding, purified MHC/competitive/radioactivity; filed as Kd, often an IC50 or EC50 that approximates it; ≥ and ≤ were set here for values at or beyond the usual limits of such assays; details: source organism: Lassa virus GA391
HLA-B*54:01 = test: as above; details: source organism: Lassa virus GA391
HLA-B*07:02 [16] = test: as above; details: source organism: Lassa virus GA391
[17] = source organism: Bacillus cereus G9241
[18] = source organism: Escherichia coli O157:H7 str. Sakai
[19] = source organism: Influenza A virus (A/goose/Guangxi/1097/2004(H5N1))
[20] = source organism: Influenza A virus (A/swine/Bakum/5/95(H1N1))
[21] = source organism: Mammarenavirus lassaense

**Q.** What does the source list for LFAGSIAAY?
**A.** Kd (HLA-B*35:01; [17]): 0.0522 µM; Kd (HLA-B*15:01 [1]; [17]): 0.19 µM

**Q.** What does the source list for TPTHLSLAI?
**A.** Kd (HLA-B*51:01; [18]): 2.92 µM; Kd (HLA-B*35:01; [18]): 0.0168 µM; Kd (HLA-B*15:01 [1]; [18]): ≥ 20 µM

**Q.** With ILFQRTFSI as the sequence, how does the IC50 (HLA-B*08:01 [2]) read?
**A.** 1.26 µM

**Q.** What about the IC50 (HLA-A*11:01 [3]) of the same sequence?
**A.** 42.8 µM

**Q.** And the IC50 (HLA-A*02:01 [4])?
**A.** 0.309 µM

**Q.** What about the IC50 (HLA-B*15:01 [5]) of the same sequence?
**A.** ≥ 375 µM

**Q.** And the IC50 (HLA-B*07:02 [6])?
**A.** ≥ 72.2 µM

**Q.** What about the IC50 (HLA-A*03:01 [7]) of the same sequence?
**A.** 2.46 µM

**Q.** Which results are given for KYTSGRQEK?
**A.** Kd (HLA-B*58:01; [19]): ≥ 20 µM; Kd (HLA-B*27:05; [19]): ≥ 20 µM; Kd (HLA-B*08:01 [8]; [19]): ≥ 20 µM; Kd (HLA-B*44:02; [19]): ≥ 20 µM; Kd (HLA-A*11:01 [9]; [19]): ≥ 20 µM; Kd (HLA-A*26:01): ≥ 20 µM; Kd (HLA-A*24:03): ≥ 20 µM; Kd (HLA-A*02:01 [10]; [19]): ≥ 20 µM; Kd (HLA-B*40:01; [19]): ≥ 20 µM; Kd (HLA-B*15:01 [11]; [19]): ≥ 20 µM; Kd (HLA-A*69:01; [19]): ≥ 20 µM; Kd (HLA-B*07:02 [12]; [19]): ≥ 20 µM; Kd (HLA-A*01:01; [19]): ≥ 20 µM; Kd (HLA-A*24:02; [19]): ≥ 20 µM; Kd (HLA-B*08:02): ≥ 20 µM; Kd (HLA-B*46:01; [19]): ≥ 20 µM; Kd (HLA-A*03:01 [13]; [19]): ≥ 20 µM; Kd (HLA-B*18:01): ≥ 20 µM; Kd (HLA-A*31:01 [14]): 0.268 µM

**Q.** What does the source list for RGINDRNFW?
**A.** Kd (HLA-B*58:01; source organism: Influenza A virus (A/swine/Bakum/1832/2000(H1N2))): 0.0415 µM; Kd (HLA-B*27:05; [20]): ≥ 20 µM; Kd (HLA-B*08:01 [8]; [20]): ≥ 20 µM; Kd (HLA-A*11:01 [9]; [20]): ≥ 20 µM; Kd (HLA-A*02:01 [10]; [20]): ≥ 20 µM; Kd (HLA-B*40:01; [20]): ≥ 20 µM; Kd (HLA-A*31:01 [15]; [20]): ≥ 20 µM; Kd (HLA-B*15:01 [11]; [20]): ≥ 20 µM; Kd (HLA-A*69:01; [20]): ≥ 20 µM; Kd (HLA-B*07:02 [12]; [20]): ≥ 20 µM; Kd (HLA-A*01:01; [20]): ≥ 20 µM; Kd (HLA-A*24:02; [20]): ≥ 20 µM; Kd (HLA-B*46:01; [20]): ≥ 20 µM; Kd (HLA-A*03:01 [13]; [20]): ≥ 20 µM

**Q.** How did the Kd (HLA-B*58:01; [21]) turn out when VPHVIEEVM was run?
**A.** ≥ 20 µM

**Q.** What about the Kd (HLA-B*27:05; [21]) of the same sequence?
**A.** ≥ 20 µM

**Q.** And the Kd (HLA-B*08:01 [8]; [21])?
**A.** 3.8 µM

**Q.** And the Kd (HLA-B*48:01)?
**A.** ≥ 20 µM

**Q.** And the Kd (HLA-B*44:02; [21])?
**A.** ≥ 20 µM

**Q.** And the Kd (HLA-A*11:01 [9]; [21])?
**A.** ≥ 20 µM

**Q.** And the Kd (HLA-A*02:01 [10]; [21])?
**A.** ≥ 20 µM

**Q.** And the Kd (HLA-B*40:01; [21])?
**A.** ≥ 20 µM

**Q.** And the Kd (HLA-A*31:01 [15]; [21])?
**A.** ≥ 20 µM

**Q.** What about the Kd (HLA-B*15:01 [11]; [21]) of the same sequence?
**A.** ≥ 20 µM

**Q.** And the Kd (HLA-B*57:01)?
**A.** ≥ 20 µM

**Q.** And the Kd (HLA-A*69:01; [21])?
**A.** ≥ 20 µM

**Q.** What about the Kd (HLA-A*01:01; [21]) of the same sequence?
**A.** ≥ 20 µM

**Q.** What about the Kd (HLA-B*46:01; [21]) of the same sequence?
**A.** ≥ 20 µM

**Q.** And the Kd (HLA-A*03:01 [13]; [21])?
**A.** ≥ 20 µM

**Q.** What about the Kd (HLA-B*53:01) of the same sequence?
**A.** 1.09 µM

**Q.** What about the Kd (HLA-B*54:01) of the same sequence?
**A.** 12.5 µM

**Q.** And the Kd (HLA-B*07:02 [16])?
**A.** 0.324 µM

**Q.** What about the Kd (HLA-B*51:01; [21]) of the same sequence?
**A.** ≥ 20 µM

**Q.** What about the Kd (HLA-B*35:01; [21]) of the same sequence?
**A.** 0.0002 µM

**Q.** Which IC50 (HLA-A*11:01 [3]) does the source give for MMVIFRLMR here?
**A.** 0.0455 µM

**Q.** And the IC50 (HLA-A*02:01 [4])?
**A.** ≥ 5440 µM

**Q.** And the IC50 (HLA-A*03:01 [7])?
**A.** 0.183 µM
